The values below come from patent publication US20230220078A1 (NAVI BIO THERAPEUTICS, published 2023).

Test [1] addresses T1, PVRL4_864 (94-957, 864 bps, r864p) recombinant fragment of Nectin-4 (PVRL4_HUMAN) (human, UniProt Q96NY8 32-319).
T1 construct: His-tagged and purified on Ni-sepharose from a 6M urea lysate; also called his-PVRL4_864
T1 sequence (looked up): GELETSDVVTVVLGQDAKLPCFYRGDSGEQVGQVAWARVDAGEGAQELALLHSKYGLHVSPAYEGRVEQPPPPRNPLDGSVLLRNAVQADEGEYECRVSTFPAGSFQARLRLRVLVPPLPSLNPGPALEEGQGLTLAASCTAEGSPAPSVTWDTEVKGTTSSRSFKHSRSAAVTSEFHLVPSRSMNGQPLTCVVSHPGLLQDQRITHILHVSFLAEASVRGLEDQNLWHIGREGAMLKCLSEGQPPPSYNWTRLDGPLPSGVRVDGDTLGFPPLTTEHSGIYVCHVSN
The test is described as follows: ELISA titration of purified scFv on PVRL4 864. In general terms: An ELISA detects its analyte on a solid surface through an enzyme-linked reagent.

Test [2] has as its target T1, PVRL4_864 (94-957, 864 bps, r864p) …. The test is described as follows: competitive ELISA of purified scFv on r864p.
For test [3] the target is unchanged. Briefly: competitive ELISA of purified scFv on r864p; competitive ELISA, purified scFv S21 on r864p.

B1: NECTIN4-scFv-S6 (scFv, V domains shown)
VH: TVTLDESGGGLQTPGGGLSLVCKGSGFTFSSNGMAWVRQAPGKGLEFVAGVNAAGSWTGYGAAVKGRATISRDNGQSTVRLQLNDLRAEDTGTYYCAKTADDWYGADDIDAWGHGTEVIVSS
VL: ALTQPSSVSTNLGETVEITCSGSSGYGYGWYQQKSPGSAPVTVIYSNDKRPSDIPSRFSGSASGSTATLTITGVRAEDEAVYLCGGYDSSASYVGIFGAGTTLTVL
notes: Chicken-derived scFv, tested as purified scFv
One may read the Kd as the free concentration of one partner at which half of the binding sites on the other are occupied at equilibrium, for simple one-to-one binding. B1: in test [1], the “concentration of scFv at OD450 nm value of 1” value (shortened to “concentration of scFv”) amounted to 0.31 µg/mL. Further, in test [2], the 50% concentration turned out to be 34.9 µg/mL and the Kd is 942 nM.

B2: NECTIN4-scFv-S21 (scFv, V domains shown)
VH: AVTLDESGGGLQTPGGALSLVCKASGFTFSSYAMMWVRQAPGKGLEYIAGIRSDGRYTYYGAAVKGRATISRDNGQSTVRLQLNNLRAEDTGTYYCAKSGVTDTSSSTYSSASNIDAWGHGTEVIVSS
VL: ALTQPSSVSANLGGTVKITCSGGSGSYGWYQQKSPGSAPVTLIYANTNRPSDIPSRFSGSKSGSTSTLTITGVQAEDVAVYYCGSRDSSYVGIFGAGTTLTVL
notes: Chicken-derived scFv from a pComb3X phage library, tested as purified scFv; also called anti-PVRL4 scFv S21; NECTIN4-scFv-521
In the case of B2, in test [1], the “concentration of scFv” value is 0.02 µg/mL. Further, the Kd in test [3] was determined as 1410 nM. Moreover, the 50% concentration in test [2] stood at 52.5 µg/mL.

B3: NECTIN4-scFv-L1 (scFv, V domains shown)
VH: AVTLDESGGGLQAPGGGLSLVCRASGFTFSSHGMFWVRQAPGKGLEFVAGISDAGSWTGYGAAVKGRATISRDSGQSTVRLQLNNLRAEDTGIYYCAKSAGDWYGADDIDAWGHGTEVIVSS
VL: ALTQPSSVSANPGETVKITCSGGSSNYYGWYQQKSPGSAPVTLIYNNNKRPSDIPSRFSASKSGSTHTLTITGVRAEDEAVYFCGGWDKSAGIFGAGTTLTVL
notes: as for B1
As to B3, the “concentration of scFv” value in test [1] amounted to 0.04 µg/mL. Besides, in test [2], the 50% concentration is 34.7 µg/mL and the Kd is 939 nM.
